According to the nanobody polyreactivity screen of Harvey et al. (2022):

Assay: yeast display, Sf9 membrane polyspecificity reagent, FACS + sequencing; frameworks hold sequencing errors
Outline: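 In a synthetic yeast display library (Saccharomyces cerevisiae BJ5465), nanobody expression was induced with galactose for 36–48 hours. FACS gates were set low and high (top ~1%) using anti-HA fluorescence for expression and streptavidin fluorescence for binding of the Sf9 membrane reagent. Each polyreactivity label is drawn from the gate of origin.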

Row | Sequence | polyreactivity (PSR sort gate)
1 | QVQLVESGGGLVQAGGSLRLSCAASGFTFAVYAMGWYRQAPGKERELGAAISRSGTRTYYADSVKGRFTFSRDNAKNTVYLQMNSLKPEDTAVYYCATVVILIYDYWGQGTQVSVSS | low polyreactivity
2 | QVQLVESGGGLVQAGGSLRLSCAASGRIFWANAMGWYRQAPGKERELVAAINRRTGITYYADSVKGRFTISRDNAKNTVYLQMNSLNPEDTAVYYCAAARGKDGYSGQGTQVTVSS | high polyreactivity
3 | QVQLVESGGGLVQAGGSLRLSCAASGFTFAWYAMGWYRPAPGKERELVAAISGSGGRTYYADSVKGRFTISRDNAKNTVYLQMNSLKPEDTAVYYFNTDRYWGKGDYWGQGTLVTVSS | high polyreactivity
4 | QVQLVESGGGLVQAGGSLRLSCAASGNIFAYYAMGWYRQAPGKERELVAAISRRGGSTYYADSVKGRFTISRDNAKNTVYLQMNSLKPEDTAVYYCNADTGNRGYDYWGQGTQVTVSS | high polyreactivity
5 | QVQLVESGGGLVQAGVSLRLSCAASGGTIVGNAMGWYRQAPGKERELVAAMSTNSGSTYYADSVKGRFTISRDNAKNTVYLQMNSLKPEDTAVYYFATRNSSKRRGYYYWGQGTQVTVSS | high polyreactivity
6 | QVQLVESGGGLVQAGGSLRISCAASGRTFSRYAMGGYRQAPGTERELVAAISRRGSSTYYADSVKGRFTISRDNAKNTVYLQINSLKPEDTAVYYCNTVTFPYVPALYDYWGQGTQVTVSS | high polyreactivity
7 | QVQLVESGGGLVQAGGSLRLSCAASGFTFSDNAMGWYRQAPGKEREFVATIDWSGGSTYYADSVKGRFTISRDNAKNTVYLQMNSLKPDDTAVYYCAATFRYSTSQYLQGYDYWGQGTQVTVSS | low polyreactivity
8 | QVQLVESGGGLVQAGGSLRLSCAASGSIFYANVKGWSRQAPGKERELDATISISSSTNYADSVKGRFTISRDNAKNTVYLQMNSLKPEDTAVYYCNASFGHHYSYWVDTSYDYWGQGTQVTVSS | low polyreactivity
9 | QVQLVESGGGLVQAGGSLRLSCAASGFSFQLYPMGWYRQAPWKERELVSAISQSGDSTYYADSVKGRFTISRDNAKNTVYLQMNSQKPEDNAVYYFNAVNDGVVWSYPFDFDYWGQGTQVTVSS | low polyreactivity
10 | QVQLVESCGGLVQAGGSLRISCAASGIIFHLYAMGWYRQAPGKQRELVAAISWNGSSTYYADSVKGRFTISRDYAKNTVYLQRNSLKPEDTAVYYCAASYGYFEDYGYWGHGTQVTVSS | low polyreactivity
11 | QVQLVESGGGLVQAGGSLRLSCAASGFTFRLYAMGWYRQAPGIERELVAAISSGGRTYYADSVKGRFTISRDNAKNTVYFQMNSLKPEDTAVNYCAVYPRDAERYGYWGQGSQVTVSS | high polyreactivity
12 | QVQLVESGGGLVQAGGSLRLSCAASGRTFSLNAMGWYRQAPGKEREFVAAISSTGGSTYYADSVKGRFTISRDNAKNTVYLQMNSLKPEDTAVYYCAKRSVYRTALGRYSVAYDYWGQGTQVTVSS | high polyreactivity
13 | QVQLVESGGGLVQAGGSLRLSCAASGFTFGYYGMGWSRQAPGKERELVAGISSSGSRTYYADSVKGRFTISRDNAKNTVYLQMNSLKPEDTAVYYCNKYYSGKSYTGEDYWGQGTQVTVSS | high polyreactivity
14 | QVQLVESGGGLVQAGGSLRLSCAASGSTFVVYAMGWYRQAPGKERELLAAIRANVGGTYYADSVKGRFTISRDNAKNTVYLQMNSLKPEDTAVYYCAAGGYYYNPSFTYGILDYEYCGQGTQVTVSS | low polyreactivity
15 | QVQLVESGGCLVQAGGSLRLSCAASGSTFRWNSIGSYRQAPVKEREFVASITSGGSTNYADSVKGRYTISRDIAKNTVYLQMNSLKPYDTAVYYCNADVRRSSYYVWLYDYWGQGTQVTVSS | low polyreactivity
16 | QVQLVESGGGLVQAGGSLRLSCAASGGTGARNAMGWYRQAPGKERELVATITRRAGTTYYADSVKGRFTISRDNAKNTVYLQMNSLKPEDTAVYYCARVATWGYYPYLIPEVGYDYWGQGTQVTVSS | high polyreactivity
17 | QVQLLESCGGLVQAGGSLRLSCAASGIIFARYAMGWYRPAPGKERELVASITTSGGRTYYADSVKGRFTISRDNAKNTVYLQMNSVKPEDTAVYYCAAYYKRDQMYYWGQGTQVTVSS | high polyreactivity
18 | QVQLVESGGRLVQAGGSLRLSCAASGFIFFTYAMGWYRQAPGKERELVAVITRGGSTYYADSVKGRFTISRDNAKNTVYLQMNSLKPEDTAVYYCAARRYRYFDGTVPLDYWGQGTQVSVSS | high polyreactivity
19 | QVQLVESGGGLVQAGGSLRLSCAASGSIFYEYAMGWYRQAPGKERELVAAINWDGGTYYADSVKGRFTISRDNAKNTVYLQMNSLKPEDTAVYYCAKPYDWGVYSQSDSDYWGQGTQVTVSS | low polyreactivity
20 | QVQLVESGGGLVQAGGSLRLSCAASGSTSTYYAMGWYRQAPGKERELVATISSTGNTKYADSVKGRFTISRDNAKNTVYLQMNSLKPEDTAVYYCNKRRSARFSSWGRVSYDYWGQGTQVTVSS | high polyreactivity
21 | QVQLVESGGGLVQAGGSLRLSCAASGTFAGNAMGCYRQSPGKERELVASITTGGRTYYADSVKGRFTISRDNAKNTVYLQMNSLKPEDTAVFYCSADLIRELEFDYWGQGTQVTVSS | low polyreactivity
